In article PMC9686918 (2022):

Tests used:
[1] = target: T1, Methylglyoxal-modified human serum albumin (HSA-MG) (Homo sapiens, UniProt P02768); assay: chlorinating activity inhibition (celestine blue B, NaCl varied)
[2] = target: T1, Methylglyoxal-modified human serum …; assay: ELISA (Scatchard plot)
[3] = target: T1, Methylglyoxal-modified human serum …; assay: chlorinating activity inhibition (celestine blue B, H2O2 varied)
[4] = target: T1, Methylglyoxal-modified human serum …; assay: peroxidase activity inhibition (ABTS varied)
[5] = target: T1, Methylglyoxal-modified human serum …; assay: peroxidase activity inhibition (ABTS, H2O2 varied)

B1: Myeloperoxidase (protein)
chain: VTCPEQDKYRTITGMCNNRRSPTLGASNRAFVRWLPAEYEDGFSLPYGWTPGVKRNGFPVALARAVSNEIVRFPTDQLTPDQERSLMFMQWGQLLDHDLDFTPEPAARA
modifications: methylglyoxal-modified HSA
[1]
  Ki: 940 nM
[2]
  Kd: 1.5 nM
[3]
  Ki: 800 nM
[4]
  Ki: 1080 nM
[5]
  Ki: 840 nM
